Residue numbers refer to the chain shown, from its start.
Tests used:
human C4b (human) [1] = target: T1, human C4b (human) (UniProt P0C0L4)
T1 sequence: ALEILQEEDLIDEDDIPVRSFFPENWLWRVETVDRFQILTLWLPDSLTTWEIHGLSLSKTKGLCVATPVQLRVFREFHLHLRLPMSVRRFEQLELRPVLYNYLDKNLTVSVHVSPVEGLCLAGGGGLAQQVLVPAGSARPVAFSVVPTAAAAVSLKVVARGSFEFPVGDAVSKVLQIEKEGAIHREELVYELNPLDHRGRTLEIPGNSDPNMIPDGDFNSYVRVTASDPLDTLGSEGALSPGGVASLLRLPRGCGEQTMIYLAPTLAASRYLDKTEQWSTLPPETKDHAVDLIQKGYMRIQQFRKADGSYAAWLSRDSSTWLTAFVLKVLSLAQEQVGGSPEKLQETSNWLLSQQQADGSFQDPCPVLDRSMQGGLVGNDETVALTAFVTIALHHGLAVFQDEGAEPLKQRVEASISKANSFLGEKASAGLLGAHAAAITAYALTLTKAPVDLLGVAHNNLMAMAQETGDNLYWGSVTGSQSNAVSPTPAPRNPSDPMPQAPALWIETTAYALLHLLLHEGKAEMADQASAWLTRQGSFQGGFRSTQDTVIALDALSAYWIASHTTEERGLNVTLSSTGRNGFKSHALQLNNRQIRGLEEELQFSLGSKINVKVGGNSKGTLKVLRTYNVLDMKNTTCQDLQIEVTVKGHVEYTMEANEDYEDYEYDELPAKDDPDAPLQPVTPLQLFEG

[2] = target: soluble human C3b (human) (UniProt P01024)
[3] = target: soluble human C3b (human) (UniProt P01024); remark: listed apart in the source
human C4b (human) [4] = target: T2, human C4b (human) (UniProt P0C0L5)
T2 sequence: T1 sequence with A151T, D317G, P364L, C365S, L368I, D369H, N420S, V451A, L454R, S530A

| Substance | C4c EC50 (nM) (human C4b (human) [1]) | iC3b EC50 [2] [nM] | also measured |
| --- | --- | --- | --- |
| CFI-HSA variant A502S (enzyme) | 640 | 26.7 | iC3b Screen Ref Fold (fold vs CFI-HSA wild type) [3]: 0.96; C4b Screen Ref Fold (fold vs CFI-HSA wild type) (human C4b (human) [4]): 0.36 |
| CFI-HSA variant A502S; K504Q; F537K (enzyme) | 810 | 31.2 | iC3b Screen Ref Fold (fold vs CFI-HSA wild type) [3]: 1.07; C4b Screen Ref Fold (fold vs CFI-HSA wild type) (human C4b (human) [4]): 0.93 |
| CFI-HSA variant D425R; Y408L; N531G; E457G; E461Q; R462K; F464Y (enzyme) | 26.1 | 4.9 | iC3b Screen Ref Fold (fold vs CFI-HSA wild type) [3]: 1.4; C4b Screen Ref Fold (fold vs CFI-HSA wild type) (human C4b (human) [4]): 4.93 |
| CFI-HSA variant D506G (enzyme) | > 1000 | > 500 | iC3b Screen Ref Fold (fold vs CFI-HSA wild type) [3]: 0; C4b Screen Ref Fold (fold vs CFI-HSA wild type) (human C4b (human) [4]): 0.09 |
| CFI-HSA variant E416A (enzyme) | 425 | 12.8 | iC3b Screen Ref Fold (fold vs CFI-HSA wild type) [3]: 1.08; C4b Screen Ref Fold (fold vs CFI-HSA wild type) (human C4b (human) [4]): 1.15 |
| CFI-HSA variant E457A (enzyme) | 113 | 16.9 | iC3b Screen Ref Fold (fold vs CFI-HSA wild type) [3]: 1.43; C4b Screen Ref Fold (fold vs CFI-HSA wild type) (human C4b (human) [4]): 4.68 |
| CFI-HSA variant E457D (enzyme) | 162 | 12.3 | iC3b Screen Ref Fold (fold vs CFI-HSA wild type) [3]: 1.21; C4b Screen Ref Fold (fold vs CFI-HSA wild type) (human C4b (human) [4]): 4.7 |
| CFI-HSA variant E457F (enzyme) | > 1000 | 96.8 | iC3b Screen Ref Fold (fold vs CFI-HSA wild type) [3]: 0.05; C4b Screen Ref Fold (fold vs CFI-HSA wild type) (human C4b (human) [4]): 0.01 |
| CFI-HSA variant E457G; D425K (enzyme) | – | 4.1 | C4c EC50 (human C4b (human) [1]): 43.3 nM; iC3b Screen Ref Fold (fold of CFI-HSA wild type) [3]: 1.5; C4b Screen Ref Fold (fold of CFI-HSA wild type) (human C4b (human) [4]): 5.33 |
| CFI-HSA variant E457G; D425R; E416A (enzyme) | 59.3 | 3.1 | iC3b Screen Ref Fold (fold of CFI-HSA wild type) [3]: 2.48; C4b Screen Ref Fold (fold of CFI-HSA wild type) (human C4b (human) [4]): 4.35 |
| CFI-HSA variant E457G; E416A (enzyme) | – | 7.1 | C4c EC50 (human C4b (human) [1]): 94.9 nM; iC3b Screen Ref Fold (fold of CFI-HSA wild type) [3]: 1.41; C4b Screen Ref Fold (fold of CFI-HSA wild type) (human C4b (human) [4]): 4.63 |
| CFI-HSA variant E457G; E461G (enzyme) | 222 | 22.2 | iC3b Screen Ref Fold (fold vs CFI-HSA wild type) [3]: 1.28; C4b Screen Ref Fold (fold vs CFI-HSA wild type) (human C4b (human) [4]): 4.31 |
| CFI-HSA variant E457G; E461Q (enzyme) | 53.1 | 5.5 | iC3b Screen Ref Fold (fold vs CFI-HSA wild type) [3]: 1.44; C4b Screen Ref Fold (fold vs CFI-HSA wild type) (human C4b (human) [4]): 5.84 |
| CFI-HSA variant K504D (enzyme) | > 1000 | 53.1 | iC3b Screen Ref Fold (fold of reference) [3]: 0.17 |
| CFI-HSA variant R557E (enzyme) | 151 | > 500 | – |
| CFI-HSA variant R557F (enzyme) | 145 | 168 | – |
| CFI-HSA variant R557G (enzyme) | 143 | > 500 | – |
| CFI-HSA variant R557H (enzyme) | 98.8 | 198 | – |
| CFI-HSA variant R557I (enzyme) | 117 | 128 | – |
| CFI-HSA variant R557L (enzyme) | 177 | 113 | – |
| CFI-HSA variant R557M (enzyme) | 82 | 164 | – |

| Substance | C4c EC50 (nM) (human C4b (human) [1]) | iC3b EC50 [2] [nM] | also measured |
| --- | --- | --- | --- |
| CFI-HSA variant R557N (enzyme) | 154 | 360 | – |
| CFI-HSA variant R557P (enzyme) | 96.3 | 288 | – |
| CFI-HSA variant R557Q (enzyme) | 120 | 286 | – |
| CFI-HSA variant R557S (enzyme) | 247 | 208 | – |
| CFI-HSA variant R557T (enzyme) | 324 | 217 | – |
| CFI-HSA variant R557V (enzyme) | 138 | 165 | – |
| CFI-HSA variant R557W (enzyme) | 165 | 198 | – |
| CFI-HSA variant R557Y (enzyme) | 145 | 116 | – |
| CFI-HSA variant T377G; E457G (enzyme) | 20.7 | 5.9 | – |
| CFI-HSA variant T377G; E457G; E461Q (enzyme) | 14.9 | 4.5 | – |
| CFI-HSA variant T377G; E457G; E461Q; N531G (enzyme) | 10.9 | 4.3 | – |
| CFI-HSA variant T377G; E461Q (enzyme) | 28.4 | 6.5 | – |
| CFI-HSA variant T377G; N531G (enzyme) | 19.2 | 6.6 | – |
| CFI-HSA variant Y408L; E457G; E461Q; R462K; N531G; R557A (enzyme) | 27.4 | 24.2 | – |
| CFI-HSA variant Y408L; E457G; E461Q; R462K; N531G; R557K (enzyme) | 17.3 | 24.6 | – |
| CFI-HSA variant Y408L; E457G; E461Q; R462K; N531G; ΔC-term (Δ558-PFISQYNV (SEQ ID NO: 14)-565) (enzyme) | 111 | 131 | – |
| CFI-HSA variant Y408L; N531G; E457G; R462K (enzyme) | – | 6.9 | C4c EC50 (human C4b (human) [1]): 23 nM |
| CFI-HSA variant Y408L; N531G; R557A (enzyme) | 54.5 | 51.6 | – |
| CFI-HSA variant Y408L; N531G; ΔC-term (Δ558-PFISQYNV (SEQ ID NO: 14)-565) (enzyme) | 173 | 110 | – |
| CFI-HSA variant Y408L; WT; GGSSGG (SEQ ID NO: 6); CR1(ccp15-17) (enzyme) | – | 37.5 | C4c EC50 (human C4b (human) [1]): 95.9 nM |

Source: US20230038638A1, “COMPLEMENT FACTOR I-RELATED COMPOSITIONS AND METHODS” (published 2023)
